This test addresses T1, recombinant soluble CD4 (UniProt P01730 26-396).
T1 construct: domain: soluble form of recombinant CD4
In words: BIAcore, soluble CD4; row shifted one column to the left. In general terms: In SPR one partner is held on a chip, and binding of the other changes the refractive index at the surface.

One may read the koff as a measure of how fast the partners let go of each other. As usually defined, the kon is the second-order rate constant of association.

B1: recombinant gp120 of HIV-1 SF2 (ligand)
chain: not shown
notes: domain: gp120; also called gp120 HIV-1 SF2; gp120-SF2
Turning to B1, the Ka came to 2.1e+08 M⁻¹, the koff is 0.0056 s⁻¹ and the kon came to 1.15e+06 M⁻¹ s⁻¹.
